# Laboratory results reported in patent US20260274985A1 (MYTHIC THERAPEUTICS, published 2026).
# Positions count from the first letter of the chain named.
# T1: Human TROP2 Protein, His Tag (Acro Biosystems) (human, UniProt P09758 27-274)
# T1 construct: Bought antigen used at 50 nM in the Octet screen; also called TACSTD2; not shown: His tag
# T1 sequence (looked up): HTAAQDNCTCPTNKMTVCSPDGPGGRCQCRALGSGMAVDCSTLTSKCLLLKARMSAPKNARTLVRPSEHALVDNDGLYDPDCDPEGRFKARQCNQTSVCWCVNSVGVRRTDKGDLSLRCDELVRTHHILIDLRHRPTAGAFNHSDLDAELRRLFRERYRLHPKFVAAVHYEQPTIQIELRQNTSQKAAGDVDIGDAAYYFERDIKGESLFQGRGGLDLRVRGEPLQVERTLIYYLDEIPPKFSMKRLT
# T2: Human TROP2 Protein, His Tag (Acro Biosystems) (human, UniProt P09758 27-274)
# T2 construct: Bought protein; also called TACSTD2; not shown: His tag
# T2 sequence: T1 sequence (looked up)
# T3: Human TROP2 Protein, His Tag, Acro Biosystems (human, UniProt P09758 27-274)
# T3 construct: Bought protein; not shown: His tag
# T3 sequence: T1 sequence (looked up)
# T4: TROP2 on TROP2-positive NCI-H1975 cells (human, UniProt P09758 27-323)
# T4 construct: Endogenous TROP2 of the human NCI-H1975 cell line; also called TACSTD2
# T4 sequence: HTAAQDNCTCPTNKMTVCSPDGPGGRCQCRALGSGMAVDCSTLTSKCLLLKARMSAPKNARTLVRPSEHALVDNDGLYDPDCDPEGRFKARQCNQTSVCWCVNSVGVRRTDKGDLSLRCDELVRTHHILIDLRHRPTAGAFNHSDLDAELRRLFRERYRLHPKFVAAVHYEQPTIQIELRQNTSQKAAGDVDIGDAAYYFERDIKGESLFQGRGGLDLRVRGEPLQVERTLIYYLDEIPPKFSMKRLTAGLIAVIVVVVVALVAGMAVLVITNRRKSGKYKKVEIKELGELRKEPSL
# T5: Human TROP2 Protein, His Tag (Acro Biosystems) (human, UniProt P09758 27-274)
# T5 construct: not shown: His tag
# T5 sequence (looked up): T1 sequence (looked up)
# T6: Human TROP2 Protein, His Tag (human, UniProt P09758 27-274)
# T6 construct: Bought protein; also called TACSTD2; not shown: His tag
# T6 sequence (looked up): T1 sequence (looked up)
# T7: Human TROP2 Protein, His Tag (Acro Biosystems) (human, UniProt P09758 27-274)
# T7 construct: also called TACSTD2; not shown: His tag
# T7 sequence (looked up): T1 sequence (looked up)
# T8: Human TROP2 Protein, His Tag (Acro Biosystems) (human, UniProt P09758 27-274)
# T8 construct: Bought protein; not shown: His tag
# T8 sequence (looked up): T1 sequence (looked up)
# B1: MYT11741 (antibody, V domains shown)
# VH: QVQLQESGPGLVKPSETLSLTCTVSGGSISSYGVHWIRQPPGKGLEWIGVIWTSGVTDYNSALMGRVTISVDTSKNQFSLKLSSVTAADTAVYYCARDGDYDRYTHDYWGQGTLVTVSS
# VL: DIVMTQSPDSLAVSLGERATINCRASKSVSTSGYSYMHWYQQKPGQPPKLLIYLASNLESGVPDRFSGSGSGTDFTLTISSLQAEDVAVYYCQHSRELPYTFGQGTKLEIK
# B2: MYT12408 (hu7E6SVG variant, HCV substitutions at 33, 34) (antibody, V domains shown)
# VH: B1 VH with G33H, V34H, H106M
# VL: B1 VL
# B3: MYT12409 (hu7E6SVG variant, HCV substitutions at 33, 51) (antibody, V domains shown)
# VH: B1 VH with G33H, I51H, H106M
# VL: B1 VL
# B4: MYT11566 (WT sacituzumab variable regions) (antibody, human IgG1, V domains shown)
# VH: QVQLQQSGSELKKPGASVKVSCKASGYTFTNYGMNWVKQAPGQGLKWMGWINTYTGEPTYTDDFKGRFAFSLDTSVSTAYLQISSLKADDTAVYFCARGGFGSSYWYFDVWGQGSLVTVSS
# VL: DIQLTQSPSSLSASVGDRVSITCKASQDVSIAVAWYQQKPGKAPKLLIYSASYRYTGVPDRFSGSGSGTDFTLTISSLQPEDFAVYYCQQHYITPLTFGAGTKVEIK
# notes: Human IgG1 heavy chain constant domain and Kappa light chain constant domain; also called Sacituzumab WT
# B5: MYT11635 (WT datopotamab variable regions) (antibody, human IgG1, V domains shown)
# VH: QVQLVQSGAEVKKPGASVKVSCKASGYTFTTAGMQWVRQAPGQGLEWMGWINTHSGVPKYAEDFKGRVTISADTSTSTAYLQLSSLKSEDTAVYYCARSGFGSSYWYFDVWGQGTLVTVSS
# VL: B4 VL with L4M, S20T, I31T, D60S, A100Q, V104L
# notes: Human IgG1 heavy chain constant domain and Kappa light chain constant domain; also called Datopotamab WT
# B6: MYT12406 (antibody, V domains shown)
# VH: B5 VH
# VL: B4 VL with L4M, S20T, I31T, A51H, D60S, Q89H, Y92H, A100Q, V104L
# notes: datopotamab VL 51, 89, 92 substituted
# B7: MYT13425 (antibody, human IgG1, V domains shown)
# VH: B4 VH with D62H
# VL: B4 VL with S30H, A51H, I93H
# notes: also called sacituzumab HC-LC pairing variant; Sacituzumab pH variant
# B8: MYT11680 (antibody, V domains shown)
# VH: B5 VH
# VL: B4 VL with L4M, S20T, Q27H, I31T, D60S, A100Q, V104L
# notes: IgG from supernatant; His at LCV position 27; also called datopotamab variant L1 04
# B9: MYT12407 (antibody, V domains shown)
# VH: B5 VH
# VL: B4 VL with L4M, S20T, I31T, S52H, D60S, Q89H, Y92H, A100Q, V104L
# notes: datopotamab VL 52, 89, 92 substituted
# B10: MYT11687 (antibody, V domains shown)
# VH: B5 VH
# VL: B4 VL with L4M, S20T, I31T, A34H, D60S, A100Q, V104L
# notes: IgG from supernatant; His at LCV position 34; also called datopotamab variant L1 11
# B11: MYT13251 (antibody, V domains shown)
# VH: B4 VH with D62H
# VL: B4 VL with S52H, I93H
# notes: Sacituzumab HC-LC pairing variant
# B12: MYT12405 (antibody, V domains shown)
# VH: B5 VH
# VL: B4 VL with L4M, S20T, I31T, A51H, S52H, D60S, Y92H, A100Q, V104L
# notes: datopotamab VL 51, 52, 92 substituted
# B13: MYT11616 (antibody, V domains shown)
# VH: B4 VH
# VL: B4 VL with A32H
# notes: Sacituzumab variant, His at LCV position 32 (L1 09)
# B14: MYT11688 (antibody, V domains shown)
# VH: B5 VH
# VL: B4 VL with L4M, S20T, I31T, S50H, D60S, A100Q, V104L
# notes: IgG from supernatant; His at LCV position 50; also called datopotamab variant L2 01
# B15: MYT13250 (antibody, V domains shown)
# VH: B4 VH with Y60H
# VL: B4 VL with S52H, I93H
# notes: as for B11
# B16: MYT11619 (antibody, V domains shown)
# VH: B4 VH
# VL: B4 VL with S50H
# notes: Sacituzumab variant, His at LCV position 50 (L2 01)
# B17: MYT11679 (antibody, V domains shown)
# VH: B5 VH
# VL: B4 VL with L4M, S20T, S26H, I31T, D60S, A100Q, V104L
# notes: IgG from supernatant; His at LCV position 26; also called datopotamab variant L1 03
# B18: MYT11678 (antibody, V domains shown)
# VH: B5 VH
# VL: B4 VL with L4M, S20T, A25H, I31T, D60S, A100Q, V104L
# notes: IgG from supernatant; His at LCV position 25; also called datopotamab variant L1 02
# Experiments:
# [1] = target: TROP2 on TROP2-positive NCI-H1975 cells (human) (UniProt P09758); assay: cell-based or functional assay; settings: scale: % greater cytotoxicity compared to WT datopotamab
# [2] = target: T1, Human TROP2 Protein, His Tag (Acro …); assay: BLI (Octet) [1/2]
# How it was run: (§1)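 Antibody variants from day-4 expression supernatants, diluted in 1×PBST pH 7.4 by expression level, captured on anti-human Fc tips. Association with 50 nM human TROP2-His in PBST pH 7.4 for 120 sec; dissociation in PBST pH 7.4 or pH 5.4 for 300 sec. Curves examined for koff at each pH versus parent antibody.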
# [3] = target: T2, Human TROP2 Protein, His Tag (Acro …); assay: BLI (Octet)
# [4] = target: T3, Human TROP2 Protein, His Tag, Acro …; assay: Octet (BLI)
# [5] = target: T4, TROP2 on TROP2-positive NCI-H1975 cells; assay: binding to NCI-H1975 cells at pH 6.4, maximal MFI
# [6] = target: T4, TROP2 on TROP2-positive NCI-H1975 cells; assay: cell-based or functional assay
# [7] = target: T5, Human TROP2 Protein, His Tag (Acro …); assay: BLI (Octet)
# [8] = target: T4, TROP2 on TROP2-positive NCI-H1975 cells; assay: cell-based or functional assay; remark: listed apart in the source
# [9] = target: T6, Human TROP2 Protein, His Tag; assay: BLI (Octet) [1/2]
# How it was run: as §1
# [10] = target: T6, Human TROP2 Protein, His Tag; assay: BLI (Octet), IgG on anti-human Fc sensor, 50 nM human TROP2-His; legend: 1 = pH dependent
# [11] = target: T7, Human TROP2 Protein, His Tag (Acro …); assay: BLI (Octet) [1/2]
# [12] = target: T8, Human TROP2 Protein, His Tag (Acro …); assay: BLI (Octet), Ab on anti-human Fc sensor, 50 nM TROP2-His; 1 = pH dependent
# Description: After allowing for four days of protein expression, cell culture supernatants were collected, quantified by SDS-PAGE analysis (DNS), and the pH dependence of the variant was evaluated using biolayer interferometry (BLI) on an Octet RED 96e instrument. Briefly, cell culture supernatants were diluted based on qualitative expression level of the variant determined by visual examination of SDS-PAGE gels, 5 μL of cell culture supernatant was diluted into 195 μL of 1×PBST, pH 7.4 for high expressors, 25 μL of cell culture supernatant was diluted into 175 μL of 1×PBST, pH 7.4 for medium expressors and 100 μL of cell culture supernatant was diluted into 100 μL of 1×PBST, pH 7.4 for low expressors for loading onto the sensor tips. The resulting diluted supernatants were then captured on an anti-human Fc sensor (Forte Bio). A baseline was established using 1×PBST (50 mM Potassium Phosphate Buffer+150 mM NaCl+0.05% Tween 20) pH 7.4, and the sensor was associated with 50 nM of TROP2 (Human TROP2 Protein, His Tag, Acro Biosystems) in 1×PBST pH 7.4 for 120 sec to generate an association curve. In the dissociation phase, the antibody-antigen complex on the sensor was exposed to 1×PBST pH 7.4 or pH 5.4, for 300 sec. […]
binder,measurement,setting,value
B1,"cytotoxicity on TROP2-positive NCI-H1975 cells (antibody complexed to secondary antibody-MMAF, cell titer glow assay)",[1],30
same,binding result,[2],binds
B2,binding result,[3],binds
B3,binding result,[3],binds
B4,Kd,[4],0.6 nM
same,Max MFI (@ pH 6.4)-H1975,[5],29500 MFI
B5,Kd,[4],1.25 nM
same,Cytotox Fold over datopotamab (FOD),[6],1 fold over datopotamab
same,Max MFI (@ pH 6.4)-H1975,[5],25900 MFI
B6,binding result,[7],no binding (tested: 50 nM)
B7,Kd,[4],3.99 nM
same,FOW H1975 (10 nM),[8],1.94 fold over parent antibody
same,Cytotox Fold over datopotamab (FOD),[6],1.39 fold over datopotamab
same,Max MFI (@ pH 6.4)-H1975,[5],11200 MFI
B8,binding result,[9],binds
B9,binding result,[7],no binding (tested: 50 nM)
B10,binding result,[10],binds
B11,binding result,[11],binds
B12,binding result,[7],no binding (tested: 50 nM)
B13,binding result,[12],binds
B14,binding result,[10],binds
B15,binding result,[11],binds
B16,binding result,[12],binds
B17,binding result,[9],binds
B18,binding result,[9],binds
